Test results reported in the supplement of paper PMC7877785.
± gives the uncertainty stated by the source.

Test: self-splicing fitness, log relative to wild type (ln ratio); higher = more splicing; Tetrahymena group I intron in knt gene, E. coli kanamycin selection, DiMSum; sequences stand for … in CUCUCU…GGAGGGAAAAGUUAUCAGGCAUGCACCUGGUAGCUAGUCUUUAAACCAAUAGAUUGCAUCGGUUUAAAAGGCAAGACCGUCAAAUUGCGGGAAAGGGGUCAACAGCCGUUCAGUACCAAGUCUCAGGGGAAACUUUGAGAUGGCCUUGCAAAGGGUAUGGUAAUAAGCUGACGGACAUGGUCCUAACCACGCAGCCAAGUCCUAAGUCAACAGAUCUUCUGUUGAUAUGGAUGCAGUUCACAGACUAAAUGUCGGUCGGGGAAGAUGUAUUCUUCUCAUAAGAUAUAGUCGGACCUCUCCUUAAUGGGAGCUAGCGGAUGAAGUGAUGCAACACUGGAGCCGCUGGGAACUAAUUUGUAUGCGAAAGUAUAUUGAUUAGUUUUGGAGUACUCGUGGUCG
Outline: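 The eight P1ex-region nucleotides of an intron in the knt kanamycin-resistance gene on pET-22b(+) were all randomised and the library put into E. coli BL21(DE3). Six replicate transformations were grown overnight at 37°C or 30°C on LB agar with or without 25 μg/mL kanamycin, together with 100 μg/mL carbenicillin, 50 μM IPTG and 0.2% rhamnose. Colonies were pooled and amplicon-sequenced on an Illumina HiSeq 2500. Fitness from DiMSum is the error-weighted combination of wild-type-normalised replicate fold changes, kanamycin over none.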

Row | Sequence | self-splicing fitness (ln) (30 °C) | self-splicing fitness (ln) (37 °C)
1 | ACACAGCAAUAUUACGGCUC | -0.896 ± 0.067 | -0.461 ± 0.088
2 | ACACAGCAAUAUUACGGGAA | -2.99 ± 0.22 | -1.79 ± 0.14
3 | ACACAGCAAUAUUACGGGAU | -1.91 ± 0.053 | -0.774 ± 0.06
4 | ACACAGCAAUAUUACGGUAG | -4 ± 0.17 | -3.1 ± 0.15
5 | ACACAGCAAUAUUACGGUCG | -1.09 ± 0.051 | -0.473 ± 0.076
6 | ACACAGCAAUAUUACGUACC | -1.43 ± 0.11 | -1.12 ± 0.15
7 | ACACAGCAAUAUUACGUAUA | -3.41 ± 0.13 | -2.5 ± 0.12
8 | ACACAGCAAUAUUACGUCAA | -2.25 ± 0.19 | -1.99 ± 0.14
9 | ACACAGCAAUAUUACGUCGA | -1.22 ± 0.089 | -0.852 ± 0.092
10 | ACACAGCAAUAUUACGUGCU | -1.34 ± 0.055 | -0.611 ± 0.065
11 | ACACAGCAAUAUUACGUGGU | -4.33 ± 0.16 | -2.82 ± 0.11
12 | ACAGAGCAAUAUUACGAACU | -3.35 ± 0.21 | -1.61 ± 0.21
13 | ACAGAGCAAUAUUACGAAGG | -3.82 ± 0.23 | -3.32 ± 0.33
14 | ACAGAGCAAUAUUACGACGG | -2.78 ± 0.24 | -1.65 ± 0.27
15 | ACAGAGCAAUAUUACGACUA | -1.17 ± 0.48 | -1.17 ± 0.42
16 | ACAGAGCAAUAUUACGAGAA | -2.03 ± 0.45 | –
17 | ACAGAGCAAUAUUACGAGCA | -3.84 ± 0.28 | -2.83 ± 0.31
18 | ACAGAGCAAUAUUACGAGGG | -2.31 ± 0.14 | -2.35 ± 0.24
19 | ACAGAGCAAUAUUACGAUGC | -2.74 ± 0.14 | -2.47 ± 0.29
20 | ACAGAGCAAUAUUACGCAUC | -4.07 ± 0.25 | -2.59 ± 0.23
21 | ACAGAGCAAUAUUACGCCGU | -2.59 ± 0.35 | -0.807 ± 0.33
22 | ACAGAGCAAUAUUACGCGUC | – | -2.07 ± 0.29
23 | ACAGAGCAAUAUUACGCUUC | -3.96 ± 0.24 | -2.16 ± 0.3
24 | ACAGAGCAAUAUUACGGAUG | -4.02 ± 0.31 | -3.37 ± 0.37

Row | Sequence | self-splicing fitness (ln) (30 °C) | self-splicing fitness (ln) (37 °C)
25 | ACAGAGCAAUAUUACGGCGA | -3.14 ± 0.31 | -1.17 ± 0.17
26 | ACAGAGCAAUAUUACGGCUA | -3.1 ± 0.23 | -1.41 ± 0.14
27 | ACAGAGCAAUAUUACGGGAG | -3.51 ± 0.28 | -1.62 ± 0.21
28 | ACAGAGCAAUAUUACGGGCA | -2.58 ± 0.19 | -0.773 ± 0.15
29 | ACAGAGCAAUAUUACGGGCU | -3.02 ± 0.22 | -2.58 ± 0.2
30 | ACAGAGCAAUAUUACGGUAU | -4.21 ± 0.36 | -3.75 ± 0.26
31 | ACAGAGCAAUAUUACGGUGG | -4.17 ± 0.23 | -3.01 ± 0.32
32 | ACAGAGCAAUAUUACGUAAU | -3.43 ± 0.4 | -2.5 ± 0.41
33 | ACAGAGCAAUAUUACGUAUU | -3.66 ± 0.23 | -2.84 ± 0.27
34 | ACAUAGCAAUAUUACGAAUG | -1.65 ± 0.1 | -1.22 ± 0.13
35 | ACAUAGCAAUAUUACGAUAG | -3.38 ± 0.19 | -1.36 ± 0.17
36 | ACAUAGCAAUAUUACGCACC | -1.83 ± 0.18 | 0.273 ± 0.18
37 | ACAUAGCAAUAUUACGCAUA | -3.01 ± 0.17 | -1.85 ± 0.12
38 | ACAUAGCAAUAUUACGCAUG | -2.85 ± 0.13 | -1.15 ± 0.12
39 | ACAUAGCAAUAUUACGCCCG | -0.76 ± 0.16 | -0.298 ± 0.15
40 | ACAUAGCAAUAUUACGCGCU | -1.19 ± 0.095 | -0.534 ± 0.098
41 | ACAUAGCAAUAUUACGCGGC | -3.77 ± 0.18 | -2.8 ± 0.3
42 | ACAUAGCAAUAUUACGCGUU | -3.55 ± 0.24 | -2.39 ± 0.15
43 | ACAUAGCAAUAUUACGCUCA | -0.539 ± 0.11 | -0.358 ± 0.12
44 | ACAUAGCAAUAUUACGCUUC | -3 ± 0.29 | -1.82 ± 0.28
45 | ACAUAGCAAUAUUACGGAAA | -2.14 ± 0.26 | -2.11 ± 0.2
46 | ACAUAGCAAUAUUACGGACA | -1.57 ± 0.16 | -0.382 ± 0.14
47 | ACAUAGCAAUAUUACGGAGA | -3.28 ± 0.25 | -2.47 ± 0.24
48 | ACAUAGCAAUAUUACGGGCU | -1.4 ± 0.13 | -0.715 ± 0.16

Row | Sequence | self-splicing fitness (ln) (30 °C) | self-splicing fitness (ln) (37 °C)
49 | ACAUAGCAAUAUUACGGUCU | -1.46 ± 0.071 | -0.428 ± 0.089
50 | ACAUAGCAAUAUUACGGUUC | -2.93 ± 0.17 | -2.51 ± 0.24
51 | ACAUAGCAAUAUUACGUAUU | -4.38 ± 0.21 | -2.78 ± 0.23
52 | ACAUAGCAAUAUUACGUUCA | -1.39 ± 0.095 | -0.808 ± 0.13
53 | ACAUAGCAAUAUUACGUUGG | -3.23 ± 0.2 | -2.29 ± 0.14
54 | ACCAAGCAAUAUUACGAGAC | -3.68 ± 0.18 | -2.86 ± 0.21
55 | ACCAAGCAAUAUUACGAGGC | -3.14 ± 0.14 | -2.32 ± 0.22
56 | ACCAAGCAAUAUUACGAGGU | -3.76 ± 0.21 | -2.22 ± 0.18
57 | ACCAAGCAAUAUUACGAUGG | -1.76 ± 0.076 | -0.995 ± 0.12
58 | ACCAAGCAAUAUUACGCAAA | -1.56 ± 0.12 | -1.74 ± 0.15
59 | ACCAAGCAAUAUUACGCAAU | -2.01 ± 0.1 | -1.04 ± 0.1
60 | ACCAAGCAAUAUUACGCACA | -0.684 ± 0.075 | 0.0111 ± 0.087
61 | ACCAAGCAAUAUUACGCAGA | -2.84 ± 0.25 | -0.709 ± 0.14
62 | ACCAAGCAAUAUUACGCAUG | -3.75 ± 0.11 | -2.2 ± 0.11
63 | ACCAAGCAAUAUUACGCGCC | -1.35 ± 0.11 | 0.198 ± 0.14
64 | ACCAAGCAAUAUUACGCGGC | -3.19 ± 0.25 | -2.39 ± 0.21
65 | ACCAAGCAAUAUUACGCGGU | -3.54 ± 0.12 | -2.84 ± 0.16
66 | ACCAAGCAAUAUUACGCUAG | -2.03 ± 0.071 | -1.52 ± 0.1
67 | ACCAAGCAAUAUUACGGAGA | -3.16 ± 0.15 | -1.66 ± 0.11
68 | ACCAAGCAAUAUUACGGAUG | -2.47 ± 0.069 | -2.48 ± 0.088
69 | ACCAAGCAAUAUUACGGCCA | -0.654 ± 0.099 | 0.134 ± 0.12
70 | ACCAAGCAAUAUUACGGCUG | -1.55 ± 0.068 | -0.288 ± 0.081
71 | ACCAAGCAAUAUUACGGUCC | -2.8 ± 0.12 | -1.07 ± 0.12
72 | ACCAAGCAAUAUUACGUACG | -2.52 ± 0.083 | -1.28 ± 0.092

Row | Sequence | self-splicing fitness (ln) (30 °C) | self-splicing fitness (ln) (37 °C)
73 | ACCAAGCAAUAUUACGUAGC | -3.58 ± 0.13 | -2.44 ± 0.13
74 | ACCAAGCAAUAUUACGUGGG | -3.46 ± 0.13 | -2.4 ± 0.11
75 | ACCAAGCAAUAUUACGUUAU | -2.95 ± 0.087 | -2.04 ± 0.093
76 | ACCAAGCAAUAUUACGUUGG | -3.54 ± 0.12 | -2.22 ± 0.14
77 | ACCCAGCAAUAUUACGAACA | -0.802 ± 0.11 | -1.35 ± 0.13
78 | ACCCAGCAAUAUUACGACAA | -1.66 ± 0.1 | -1.09 ± 0.1
79 | ACCCAGCAAUAUUACGACCG | -2.05 ± 0.17 | -0.527 ± 0.18
80 | ACCCAGCAAUAUUACGAGUA | -2.39 ± 0.12 | -1.02 ± 0.079
81 | ACCCAGCAAUAUUACGCGGC | -2.93 ± 0.17 | -2.76 ± 0.26
82 | ACCCAGCAAUAUUACGCGUU | -0.424 ± 0.049 | 0.328 ± 0.066
83 | ACCCAGCAAUAUUACGCUCA | -0.397 ± 0.065 | -0.324 ± 0.087
84 | ACCCAGCAAUAUUACGGAAU | -0.884 ± 0.054 | -0.0542 ± 0.07
85 | ACCCAGCAAUAUUACGGCCU | -0.518 ± 0.052 | 0.0547 ± 0.067
86 | ACCCAGCAAUAUUACGGCUA | -0.684 ± 0.1 | 0.23 ± 0.1
87 | ACCCAGCAAUAUUACGUAAG | -1.13 ± 0.049 | -0.47 ± 0.069
88 | ACCCAGCAAUAUUACGUCGU | -0.24 ± 0.039 | -0.318 ± 0.051
89 | ACCCAGCAAUAUUACGUGCU | -4.5 ± 0.23 | -1.67 ± 0.12
90 | ACCCAGCAAUAUUACGUGUC | -3.36 ± 0.099 | -1.75 ± 0.099
91 | ACCCAGCAAUAUUACGUUUA | -1.57 ± 0.066 | -1.01 ± 0.072
92 | ACCGAGCAAUAUUACGAACU | -2.13 ± 0.13 | -0.803 ± 0.14
93 | ACCGAGCAAUAUUACGAAUG | -2.51 ± 0.16 | -2.7 ± 0.44
94 | ACCGAGCAAUAUUACGAGGU | -2.42 ± 0.23 | -0.758 ± 0.2
95 | ACCGAGCAAUAUUACGAUGC | -1.97 ± 0.14 | -1.56 ± 0.14
